Reference: publication PMC12575849, “Condensation-dependent interactome of a chromatin remodeler underlies tumor suppressor activities” (Nature Communications, 2025)

Biological target: unmodified nucleosome (recombinant human histone octamer on Widom 601 DNA) (human, UniProt P04908 1-130; O60814 1-126; P68431 1-136; P62805 1-103)
Test: native gel or EMSA; purified CHD1 titrated against 5 nM IR dye-conjugated nucleosome in EMSA buffer (10 mM HEPES pH 8.0, 75 mM NaCl, 5 mM MgCl2, 10% glycerol, 1 mM DTT, 0.1 mg/ml BSA), 30 min at 30 °C, native PAGE; shifted fraction fitted to a dose-response curve
Conditions: both partners purified

Kd: 6.3 nM
B1: recombinant CHD1^ΔNC protein (domain or fragment)
chain: EEEFETIERFMDCRIGRKGATGATTTIYAVEADGDPNAGFEKNKEPGEIQYLIKWKGWSHIHNTWETEETLKQQNVRGMKKLDNYKKKDQETKRWLKNASPEDVEYYNCQQELTDDLHKQYQIVERIIAHSNQKSAAGYPDYYCKWQGLPYSECSWEDGALISKKFQACIDEYFSRNQSKTTPFKDCKVLKQRPRFVALKKQPSYIGGHEGLELRDYQLNGLNWLAHSWCKGNSCILADEMGLGKTIQTISFLNYLFHEHQLYGPFLLVVPLSTLTSWQREIQTWASQMNAVVYLGDINSRNMIRTHEWTHHQTKRLKFNILLTTYEILLKDKAFLGGLNWAFIGVDEAHRLKNDDSLLYKTLIDFKSNHRLLITGTPLQNSLKELWSLLHFIMPEKFSSWEDFEEEHGKGREYGYASLHKELEPFLLRRVKKDVEKSLPAKVEQILRMEMSALQKQYYKWILTRNYKALSKGSKGSTSGFLNIMMELKKCCNHCYLIKPPDNNEFYNKQEALQHLIRSSGKLILLDKLLIRLRERGNRVLIFSQMVRMLDILAEYLKYRQFPFQRLDGSIKGELRKQALDHFNAEGSEDFCFLLSTRAGGLGINLASADTVVIFDSDWNPQNDLQAQARAHRIGQKKQVNIYRLVTKGSVEEDILERAKKKMVLDHLVIQRMDTTGKTVLHTGSAPSSSTPFNKEELSAILKFGAEELFKEPEGEEQEPQEMDIDEILKRAETHENEPGPLTVGDELLSQFKVANFSNMDEDDIELEPERNSKNWEEIIPEDQRRRLEEEERQKELEEIYMLPRMRNCAKQISFNGSEGRRSRSRRYSGSDSDSISEGKRPKKRGRPRTIPRENIKGFSDAEIRRFIKSYKKFGGPLERLDAIARDAELVDKSETDLRRLGELVHNGCIKALKDSSSGTERTGGRLGKVKGPTFRISGVQVNAKLVISHEEELIPLHKSIPSDPEERKQYTIPCHTKAAHFDIDWGKEDDSNLLIGIYEYGYGSWEMIKMDPDLSLTHKILPDDPDKKPQAKQLQTRADYLIKLLSRDLAKKEALSGAGSSKRRKARAKKNKA
